From patent US7078491 (Amgen, dated 2006)

Target: T1, flag-tagged hTERT protein from transfected 293T cells (human, UniProt O14746 1-1132)
T1 construct: also called hTERT from 293T cells; 293T lysate
Assay: immunoprecipitation from 293T lysate, Western blot with peptide polyclonal antibody
Method: Immunoprecipitation experiments were also carried out to verify the specificity of the 4A5 and 4B5 monoclonal antibodies. Protein G Sepharose beads (Pharmacia) were incubated with anti-mouse IgG (Amersham Biotech) in CHAPS buffer (0.5% CHAPS, 10 mM TRIS, 1 mM NaCl, 10% glycerol, 1 mM DTT, RNase inhibitor, Complete Protease Inhibitor; Boehringer Mannheim) at room temperature for 1 to 4 hours. The beads were washed and then incubated again at room temperature for 1 to 4 hours with 2 µg of one of the following antibodies: anti-GST, peptide polyclonal antibody, RT polyclonal antibody, 4A5 monoclonal antibody, 4B5 monoclonal antibody. For the negative control 4G6 antibody, the beads were incubated with 4G6 antibody in CHAPS buffer.
Following the incubation, the beads were washed with the aforementioned buffer and then incubated in the aforementioned buffer containing either 50 µl of hTERT-s200 generated by the TNT reaction on rabbit reticulocyte (see upper panels in FIG. 2) or 100 µl of 293T lysate (see lower panel in FIG. 2) for 1 to 4 hours at 4° C. The beads were washed again in the aforementioned buffer, the excess buffer removed form the beads and suspended in 4× SDS loading dye (see Sambrook et al, supra.). […] Western blotting was carried out as described above and probed with 0.28 µg/ml of peptide polyclonal hTERT antibody and binding was detected with the ECL method. […]

T1 sequence (O14746 whole entry): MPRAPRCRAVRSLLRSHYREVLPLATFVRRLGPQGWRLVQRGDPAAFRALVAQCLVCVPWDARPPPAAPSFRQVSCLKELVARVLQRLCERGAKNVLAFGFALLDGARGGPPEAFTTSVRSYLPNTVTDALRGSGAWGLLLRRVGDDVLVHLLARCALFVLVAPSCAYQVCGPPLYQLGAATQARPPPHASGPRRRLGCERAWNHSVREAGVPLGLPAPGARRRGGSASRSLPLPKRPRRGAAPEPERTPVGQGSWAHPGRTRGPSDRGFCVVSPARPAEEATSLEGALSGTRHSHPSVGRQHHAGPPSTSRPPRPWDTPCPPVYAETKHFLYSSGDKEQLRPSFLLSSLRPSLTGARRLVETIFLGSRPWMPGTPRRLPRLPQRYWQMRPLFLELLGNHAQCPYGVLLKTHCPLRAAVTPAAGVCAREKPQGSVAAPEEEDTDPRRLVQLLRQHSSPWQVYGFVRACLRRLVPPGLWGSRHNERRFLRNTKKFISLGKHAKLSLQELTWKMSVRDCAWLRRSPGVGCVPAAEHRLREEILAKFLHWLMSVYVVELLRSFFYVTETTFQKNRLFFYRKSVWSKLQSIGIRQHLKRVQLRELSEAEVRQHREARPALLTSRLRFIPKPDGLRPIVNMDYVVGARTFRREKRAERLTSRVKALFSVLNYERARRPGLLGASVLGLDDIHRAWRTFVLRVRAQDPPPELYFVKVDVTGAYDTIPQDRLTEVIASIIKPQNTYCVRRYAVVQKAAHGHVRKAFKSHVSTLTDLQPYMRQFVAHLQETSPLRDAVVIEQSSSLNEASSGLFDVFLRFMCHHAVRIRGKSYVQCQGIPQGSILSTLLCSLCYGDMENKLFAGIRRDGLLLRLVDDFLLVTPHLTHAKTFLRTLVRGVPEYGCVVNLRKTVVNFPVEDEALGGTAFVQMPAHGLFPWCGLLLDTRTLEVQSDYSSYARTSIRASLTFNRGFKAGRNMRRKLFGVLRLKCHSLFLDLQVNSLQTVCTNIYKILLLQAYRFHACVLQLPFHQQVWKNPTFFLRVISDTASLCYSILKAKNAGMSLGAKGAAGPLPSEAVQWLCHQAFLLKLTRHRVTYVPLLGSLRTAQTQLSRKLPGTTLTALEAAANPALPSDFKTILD

B1: 4A5 monoclonal antibody (hybridoma 4A5, ATCC PTA-2412) (antibody, V domains shown)
VH: EVKLVESGGGLVKPGGSLKLSCAASGFTFSSYAMSWVRQTPEKRLEWVASISSGGNTYYPDNVQGRFTISRDNARNILYLQMSSLRSEDTAMFYCAREGVYDTYGGVDYWGQGTTLTVSS
VL: DIVLTQSPTSLAVSLGQRATISCKASQSVDYDGDSFINWYQQTPGQPPKLLIYAASNLASGIPARFSGSGSGTDFTLNIHPVEEEDAATYYCQQSNEAPPTFGGGTKLEI
notes: Mouse monoclonal from hybridoma, characterized as IgG2B type, kappa light chain primers used; also called 4A5 mAb; 45A
B1: binds.
